Legend:
HGF-His tag [1] = target: T1, HGF-His tag (UniProt P14210 32-728); assay: direct bind ELISA (N-term VD);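 also: ELISA screen of antibodies for binding to plate-immobilized target antigen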
T1 construct: Bought antigen coated on the ELISA plate; not shown: His tag

VEGF 1-165 aa [2] = target: T2, VEGF 1-165 aa (UniProt P15692 27-191); assay: direct bind ELISA (C-term VD)
T2 construct: Bought antigen coated on the ELISA plate
Protocol: (§1) Enzyme Linked Immunosorbent Assays to screen for antibodies that bind a desired target antigen were performed as follows. […] Plates were washed four times with PBS containing 0.02% Tween 20. Plates were blocked by the addition of 300 μL/well blocking solution (non-fat dry milk powder, various retail suppliers, diluted to 2% in PBS) for ½ hour at room temperature. Plates were washed four times after blocking with PBS containing 0.02% Tween 20.
(§2) Alternatively, one hundred microliters per well of 10 μg/ml of Histidine (His) tagged desired target antigen (R&D Systems, Minneapolis, Minn.) was added to ELISA plates coated with monoclonal mouse anti-polyHistidine antibody as described above and incubated for 1 hour at room temperature. Wells were washed four times with PBS containing 0.02% Tween 20.
(§3) Plates were washed 4 times with PBS containing 0.02% Tween 20.

HGF-His tag [3] = target: T1, HGF-His tag; assay: direct bind ELISA (C-term VD)
Protocol: as §1, §2, §3

VEGF 1-165 aa [4] = target: T2, VEGF 1-165 aa; assay: direct bind ELISA (N-term VD);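 also: ELISA screen of antibodies for binding to plate-immobilized target antigen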
Protocol: as §1, §2, §3

T1 sequence (P14210 32-728 limits assumed): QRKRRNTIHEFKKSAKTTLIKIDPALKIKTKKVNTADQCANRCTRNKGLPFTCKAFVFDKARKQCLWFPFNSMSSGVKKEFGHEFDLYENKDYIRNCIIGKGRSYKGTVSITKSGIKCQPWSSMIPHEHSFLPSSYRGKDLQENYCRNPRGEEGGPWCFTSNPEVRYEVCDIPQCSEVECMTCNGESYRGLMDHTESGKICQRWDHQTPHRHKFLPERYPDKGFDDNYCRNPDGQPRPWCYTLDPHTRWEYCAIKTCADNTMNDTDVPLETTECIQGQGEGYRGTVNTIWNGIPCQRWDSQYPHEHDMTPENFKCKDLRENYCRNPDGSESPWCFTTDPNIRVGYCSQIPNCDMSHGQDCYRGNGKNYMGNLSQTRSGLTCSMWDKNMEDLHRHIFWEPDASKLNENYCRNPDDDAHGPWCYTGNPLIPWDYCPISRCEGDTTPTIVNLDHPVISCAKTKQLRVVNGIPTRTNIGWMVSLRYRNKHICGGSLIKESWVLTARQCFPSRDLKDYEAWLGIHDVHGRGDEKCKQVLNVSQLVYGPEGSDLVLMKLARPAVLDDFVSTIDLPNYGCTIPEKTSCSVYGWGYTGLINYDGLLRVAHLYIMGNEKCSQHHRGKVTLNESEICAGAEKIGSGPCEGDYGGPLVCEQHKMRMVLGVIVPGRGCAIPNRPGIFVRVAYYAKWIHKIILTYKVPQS
T2 sequence (P15692 other isoform, or with tags, fused parts or gaps limits assumed): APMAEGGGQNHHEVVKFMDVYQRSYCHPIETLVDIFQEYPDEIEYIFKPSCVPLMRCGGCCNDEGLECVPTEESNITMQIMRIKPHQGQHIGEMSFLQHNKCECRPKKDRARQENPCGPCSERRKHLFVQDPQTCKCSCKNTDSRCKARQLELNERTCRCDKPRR

B1: DVD645 (bispecific antibody, human IgG1, kappa)
heavy: not shown
light: DIQMTQSPSSVSASVGDRVTITCRASQGISSWLAWYQQKPGKAPNLLIYEASSLQSGVPSRFGGSGSGTDFTLTISSLQPEDFATYYCQQANGFPWTFGQGTKVEIKRTVAAPSVFIFPPDIQMTQSPSSLSASVGDRVTITCRASQVIRRSLAWYQQKPGKAPKLLIYAASNLASGVPSRFSGSGSGTDFTLTISSLQPEDFATYYCQQSNTSPLTFGQGTKVEIKRTVAAPSVFIFPPSDEQLKSGTASVVCLLNNFYPREAKVQWKVDNALQSGNSQESVTEQDSKDSTYSLSSTLTLSKADYEKHKVYACEVTHQGLSSPVTKSFNRGEC
notes: DVD-Ig; N-term VD AB012 (HGF), C-term VD AB071 (VEGF); HC linker long, LC linker long; vectors V1/V2
EC50 (HGF-His tag [1]): 0.17 nM

B2: DVD657 (bispecific antibody, human IgG1, kappa)
heavy: not shown
light: DIQMTQSPSSVSASVGDRVTITCRASQGISSWLAWYQQKPGKAPNLLIYEASSLQSGVPSRFGGSGSGTDFTLTISSLQPEDFATYYCQQANGFPWTFGQGTKVEIKRTVAAPSVFIFPPDIQMTQSPSSLSASVGDRVTITCRASQVIRRSLAWYQQKPGKAPKLLIYAASNLASGVPSRFSGSGSGTDFTLTISSLQPEDFATYYCQQSNTSPLTFGQGTKVEIKRTVAAPSVFIFPPSDEQLKSGTASVVCLLNNFYPREAKVQWKVDNALQSGNSQESVTEQDSKDSTYSLSSTLTLSKADYEKHKVYACEVTHQGLSSPVTKSFNRGEC
notes: DVD-Ig; N-term VD AB012 (HGF), C-term VD AB071 (VEGF); HC linker short, LC linker long; vectors V1/V2
EC50 (VEGF 1-165 aa [2]): 358 nM | EC50 (HGF-His tag [1]): 0.31 nM

B3: DVD678 (bispecific antibody, human IgG1, kappa)
heavy: not shown
light: DIQMTQSPSSLSASVGDRVTITCSASQDISNYLNWYQQKPGKAPKVLIYFTSSLHSGVPSRFSGSGSGTDFTLTISSLQPEDFATYYCQQYSTVPWTFGQGTKVEIKRTVAAPSVFIFPPDIQMTQSPSSLSASVGDRVTITCKASENVVSYVSWYQQKPGKAPKLLIYGASNRNTGVPSRFSGSGSGTDFTLTISSLQPEDFATYYCGQSYNYPYTFGQGTKLEIKRTVAAPSVFIFPPSDEQLKSGTASVVCLLNNFYPREAKVQWKVDNALQSGNSQESVTEQDSKDSTYSLSSTLTLSKADYEKHKVYACEVTHQGLSSPVTKSFNRGEC
notes: DVD-Ig; HC linker short, LC linker long; vectors V1/V2
EC50 (HGF-His tag [3]): 4.69 nM | EC50 (VEGF 1-165 aa [4]): 0.65 nM

B4: DVD672 (bispecific antibody, human IgG1, kappa)
heavy: not shown
light: DIQMTQSPSSLSASVGDRVTITCSASQDISNYLNWYQQKPGKAPKVLIYFTSSLHSGVPSRFSGSGSGTDFTLTISSLQPEDFATYYCQQYSTVPWTFGQGTKVEIKRTVAAPDIQMTQSPSSLSASVGDRVTITCKASENVVSYVSWYQQKPGKAPKLLIYGASNRNTGVPSRFSGSGSGTDFTLTISSLQPEDFATYYCGQSYNYPYTFGQGTKLEIKRTVAAPSVFIFPPSDEQLKSGTASVVCLLNNFYPREAKVQWKVDNALQSGNSQESVTEQDSKDSTYSLSSTLTLSKADYEKHKVYACEVTHQGLSSPVTKSFNRGEC
notes: DVD-Ig; HC linker long, LC linker short; vectors V1/V2
EC50 (HGF-His tag [3]): 22.9 nM | EC50 (VEGF 1-165 aa [4]): 16.1 nM

B5: DVD651 (bispecific antibody, human IgG1, kappa)
heavy: not shown
light: DIQMTQSPSSVSASVGDRVTITCRASQGISSWLAWYQQKPGKAPNLLIYEASSLQSGVPSRFGGSGSGTDFTLTISSLQPEDFATYYCQQANGFPWTFGQGTKVEIKRTVAAPDIQMTQSPSSLSASVGDRVTITCRASQVIRRSLAWYQQKPGKAPKLLIYAASNLASGVPSRFSGSGSGTDFTLTISSLQPEDFATYYCQQSNTSPLTFGQGTKVEIKRTVAAPSVFIFPPSDEQLKSGTASVVCLLNNFYPREAKVQWKVDNALQSGNSQESVTEQDSKDSTYSLSSTLTLSKADYEKHKVYACEVTHQGLSSPVTKSFNRGEC
notes: DVD-Ig; N-term VD AB012 (HGF), C-term VD AB071 (VEGF); HC linker long, LC linker short; vectors V1/V2
EC50 (VEGF 1-165 aa [2]): 341 nM | EC50 (HGF-His tag [1]): 0.11 nM

B6: DVD674 (bispecific antibody, human IgG1, kappa)
heavy: not shown
light: DIQMTQSPSSLSASVGDRVTITCRASQDVSTAVAWYQQKPGKAPKLLIYSASFLYSGVPSRFSGSGSGTDFTLTISSLQPEDFATYYCQQSYTTPPTFGQGTKVEIKRTVAAPDIQMTQSPSSLSASVGDRVTITCKASENVVSYVSWYQQKPGKAPKLLIYGASNRNTGVPSRFSGSGSGTDFTLTISSLQPEDFATYYCGQSYNYPYTFGQGTKLEIKRTVAAPSVFIFPPSDEQLKSGTASVVCLLNNFYPREAKVQWKVDNALQSGNSQESVTEQDSKDSTYSLSSTLTLSKADYEKHKVYACEVTHQGLSSPVTKSFNRGEC
notes: as for B4
EC50 (HGF-His tag [3]): 17.6 nM | EC50 (VEGF 1-165 aa [4]): 10.6 nM

B7: DVD663 (bispecific antibody, human IgG1, kappa)
heavy: not shown
light: DIQMTQSPSSLSASVGDRVTITCKASENVVSYVSWYQQKPGKAPKLLIYGASNRNTGVPSRFSGSGSGTDFTLTISSLQPEDFATYYCGQSYNYPYTFGQGTKLEIKRTVAAPDIQMTQSPSSLSASVGDRVTITCRASQVIRRSLAWYQQKPGKAPKLLIYAASNLASGVPSRFSGSGSGTDFTLTISSLQPEDFATYYCQQSNTSPLTFGQGTKVEIKRTVAAPSVFIFPPSDEQLKSGTASVVCLLNNFYPREAKVQWKVDNALQSGNSQESVTEQDSKDSTYSLSSTLTLSKADYEKHKVYACEVTHQGLSSPVTKSFNRGEC
notes: DVD-Ig; N-term VD AB079 (HGF), C-term VD AB071 (VEGF); HC linker short, LC linker short; vectors V1/V2
EC50 (HGF-His tag [1]): 0.26 nM

B8: DVD682 (bispecific antibody, human IgG1, kappa)
heavy: not shown
light: DIQMTQSPSSLSASVGDRVTITCRASQVIRRSLAWYQQKPGKAPKLLIYAASNLASGVPSRFSGSGSGTDFTLTISSLQPEDFATYYCQQSNTSPLTFGQGTKVEIKRTVAAPSVFIFPPDIQMTQSPSSLSASVGDRVTITCKASENVVSYVSWYQQKPGKAPKLLIYGASNRNTGVPSRFSGSGSGTDFTLTISSLQPEDFATYYCGQSYNYPYTFGQGTKLEIKRTVAAPSVFIFPPSDEQLKSGTASVVCLLNNFYPREAKVQWKVDNALQSGNSQESVTEQDSKDSTYSLSSTLTLSKADYEKHKVYACEVTHQGLSSPVTKSFNRGEC
notes: DVD-Ig; N-term VD AB071 (VEGF), C-term VD AB079 (HGF); HC linker short, LC linker long; vectors V1/V2
EC50 (HGF-His tag [3]): 6.55 nM | EC50 (VEGF 1-165 aa [4]): 53.1 nM

B9: DVD676 (bispecific antibody, human IgG1, kappa)
heavy: not shown
light: DIQMTQSPSSLSASVGDRVTITCRASQVIRRSLAWYQQKPGKAPKLLIYAASNLASGVPSRFSGSGSGTDFTLTISSLQPEDFATYYCQQSNTSPLTFGQGTKVEIKRTVAAPDIQMTQSPSSLSASVGDRVTITCKASENVVSYVSWYQQKPGKAPKLLIYGASNRNTGVPSRFSGSGSGTDFTLTISSLQPEDFATYYCGQSYNYPYTFGQGTKLEIKRTVAAPSVFIFPPSDEQLKSGTASVVCLLNNFYPREAKVQWKVDNALQSGNSQESVTEQDSKDSTYSLSSTLTLSKADYEKHKVYACEVTHQGLSSPVTKSFNRGEC
notes: DVD-Ig; N-term VD AB071 (VEGF), C-term VD AB079 (HGF); HC linker long, LC linker short; vectors V1/V2
EC50 (HGF-His tag [3]): 35.8 nM | EC50 (VEGF 1-165 aa [4]): 130 nM

B10: DVD712 (bispecific antibody, human IgG1, kappa)
heavy: not shown
light: DIQMTQSPSSLSASVGDRVTITCRASQVIRRSLAWYQQKPGKAPKLLIYAASNLASGVPSRFSGSGSGTDFTLTISSLQPEDFATYYCQQSNTSPLTFGQGTKVEIKRTVAAPDIQMTQSPSSVSASVGDRVTITCRASQGISSWLAWYQQKPGKAPNLLIYEASSLQSGVPSRFGGSGSGTDFTLTISSLQPEDFATYYCQQANGFPWTFGQGTKVEIKRTVAAPSVFIFPPSDEQLKSGTASVVCLLNNFYPREAKVQWKVDNALQSGNSQESVTEQDSKDSTYSLSSTLTLSKADYEKHKVYACEVTHQGLSSPVTKSFNRGEC
notes: DVD-Ig; N-term VD AB071 (VEGF), C-term VD AB012 (HGF); HC linker short, LC linker short; vectors V1/V2
EC50 (HGF-His tag [3]): 37.2 nM | EC50 (VEGF 1-165 aa [4]): 64.2 nM

B11: DVD710 (bispecific antibody, human IgG1, kappa)
heavy: not shown
light: DIQMTQSPSSLSASVGDRVTITCRASQDVSTAVAWYQQKPGKAPKLLIYSASFLYSGVPSRFSGSGSGTDFTLTISSLQPEDFATYYCQQSYTTPPTFGQGTKVEIKRTVAAPDIQMTQSPSSVSASVGDRVTITCRASQGISSWLAWYQQKPGKAPNLLIYEASSLQSGVPSRFGGSGSGTDFTLTISSLQPEDFATYYCQQANGFPWTFGQGTKVEIKRTVAAPSVFIFPPSDEQLKSGTASVVCLLNNFYPREAKVQWKVDNALQSGNSQESVTEQDSKDSTYSLSSTLTLSKADYEKHKVYACEVTHQGLSSPVTKSFNRGEC
notes: DVD-Ig; HC linker short, LC linker short; vectors V1/V2
EC50 (HGF-His tag [3]): 17.8 nM | EC50 (VEGF 1-165 aa [4]): 2.43 nM

B12: DVD643 (bispecific antibody, human IgG1, kappa)
heavy: not shown
light: DIQMTQSPSSVSASVGDRVTITCRASQGISSWLAWYQQKPGKAPNLLIYEASSLQSGVPSRFGGSGSGTDFTLTISSLQPEDFATYYCQQANGFPWTFGQGTKVEIKRTVAAPSVFIFPPDIQMTQSPSSLSASVGDRVTITCRASQDVSTAVAWYQQKPGKAPKLLIYSASFLYSGVPSRFSGSGSGTDFTLTISSLQPEDFATYYCQQSYTTPPTFGQGTKVEIKRTVAAPSVFIFPPSDEQLKSGTASVVCLLNNFYPREAKVQWKVDNALQSGNSQESVTEQDSKDSTYSLSSTLTLSKADYEKHKVYACEVTHQGLSSPVTKSFNRGEC
notes: DVD-Ig; HC linker long, LC linker long; vectors V1/V2
EC50 (VEGF 1-165 aa [2]): 175 nM | EC50 (HGF-His tag [1]): 0.26 nM

B13: DVD655 (bispecific antibody, human IgG1, kappa)
heavy: not shown
light: DIQMTQSPSSVSASVGDRVTITCRASQGISSWLAWYQQKPGKAPNLLIYEASSLQSGVPSRFGGSGSGTDFTLTISSLQPEDFATYYCQQANGFPWTFGQGTKVEIKRTVAAPSVFIFPPDIQMTQSPSSLSASVGDRVTITCRASQDVSTAVAWYQQKPGKAPKLLIYSASFLYSGVPSRFSGSGSGTDFTLTISSLQPEDFATYYCQQSYTTPPTFGQGTKVEIKRTVAAPSVFIFPPSDEQLKSGTASVVCLLNNFYPREAKVQWKVDNALQSGNSQESVTEQDSKDSTYSLSSTLTLSKADYEKHKVYACEVTHQGLSSPVTKSFNRGEC
notes: as for B3
EC50 (VEGF 1-165 aa [2]): 92.9 nM | EC50 (HGF-His tag [1]): 0.19 nM

B14: DVD649 (bispecific antibody, human IgG1, kappa)
heavy: not shown
light: DIQMTQSPSSVSASVGDRVTITCRASQGISSWLAWYQQKPGKAPNLLIYEASSLQSGVPSRFGGSGSGTDFTLTISSLQPEDFATYYCQQANGFPWTFGQGTKVEIKRTVAAPDIQMTQSPSSLSASVGDRVTITCRASQDVSTAVAWYQQKPGKAPKLLIYSASFLYSGVPSRFSGSGSGTDFTLTISSLQPEDFATYYCQQSYTTPPTFGQGTKVEIKRTVAAPSVFIFPPSDEQLKSGTASVVCLLNNFYPREAKVQWKVDNALQSGNSQESVTEQDSKDSTYSLSSTLTLSKADYEKHKVYACEVTHQGLSSPVTKSFNRGEC
notes: as for B4
EC50 (VEGF 1-165 aa [2]): 186 nM | EC50 (HGF-His tag [1]): 0.15 nM

B15: DVD680 (bispecific antibody, human IgG1, kappa)
heavy: not shown
light: DIQMTQSPSSLSASVGDRVTITCRASQDVSTAVAWYQQKPGKAPKLLIYSASFLYSGVPSRFSGSGSGTDFTLTISSLQPEDFATYYCQQSYTTPPTFGQGTKVEIKRTVAAPSVFIFPPDIQMTQSPSSLSASVGDRVTITCKASENVVSYVSWYQQKPGKAPKLLIYGASNRNTGVPSRFSGSGSGTDFTLTISSLQPEDFATYYCGQSYNYPYTFGQGTKLEIKRTVAAPSVFIFPPSDEQLKSGTASVVCLLNNFYPREAKVQWKVDNALQSGNSQESVTEQDSKDSTYSLSSTLTLSKADYEKHKVYACEVTHQGLSSPVTKSFNRGEC
notes: as for B3
EC50 (HGF-His tag [3]): 5.17 nM | EC50 (VEGF 1-165 aa [4]): 12.6 nM

From patent publication US20100260668A1 (published 2010)
